Blank lines part the entries; values can stand above or below the sequence they belong to.
Experiments:
Assay in all cases: IEDB peptide-MHC binding, purified MHC/competitive/radioactivity; filed as Kd, often an IC50 or EC50 that approximates it; ≥ and ≤ were set here for values at or beyond the usual limits of such assays
[1] = target: HLA-A*02:02
[2] = target: HLA-A*02:03
[3] = target: HLA-A*02:06
[4] = target: HLA-A*03:01
[5] = target: HLA-A*11:01
[6] = target: HLA-A*31:01
[7] = target: HLA-A*33:01
[8] = target: HLA-A*68:01
[9] = source organism: Vaccinia virus WR
[10] = source organism: Dengue virus 2 Jamaica/1409/1983
[11] = source organism: Dengue virus 4 Philippines/H241/1956
[12] = source organism: SARS coronavirus Tor2
[13] = source organism: Dengue virus 3 Martinique/1243/1999
[14] = source organism: Lymphocytic choriomeningitis virus (strain Armstrong)

Sequence: ETAIRAGYSI
Kd [1, 9]: ≥ 25800 nM | Kd [2, 9]: ≥ 29300 nM | Kd [3, 9]: 17800 nM

Sequence: CVKYLLDNDI
Kd [1, 9]: ≥ 31800 nM | Kd [2, 9]: 5670 nM | Kd [3, 9]: 7580 nM

Sequence: DIMLPESDL
Kd [1, 9]: 18500 nM | Kd [2, 9]: ≥ 35800 nM | Kd [3, 9]: ≥ 31600 nM

Sequence: TMWHVTRGAV
Kd [2, 10]: 382 nM

Sequence: HVLGRLITV
Kd [3, 10]: 8.84 nM

Sequence: LVVVTTLCAI
Kd [3, 11]: 91.2 nM

Sequence: FLAFVVFLLV
Kd [1, 12]: 2.36 nM | Kd [2, 12]: 211 nM | Kd [3, 12]: 2980 nM

Sequence: VTKRDESSI
Kd [1, 9]: 8050 nM | Kd [2, 9]: 2140 nM | Kd [3, 9]: ≥ 38300 nM

Sequence: VIKLVKSLV
Kd [1, 9]: 1030 nM | Kd [2, 9]: 126 nM | Kd [3, 9]: 4120 nM

Sequence: AIMTRCLAV
Kd [1, 12]: 51.5 nM | Kd [2, 12]: 14.7 nM | Kd [3, 12]: 26.8 nM

Sequence: GLAFSIMKSV
Kd [2, 13]: 11.6 nM

Sequence: TQLFKYVPSA
Kd [1, 9]: ≥ 70000 nM | Kd [2, 9]: ≥ 70400 nM | Kd [3, 9]: ≥ 69800 nM

Sequence: SANMDWRSLT
Kd [1, 9]: 1790 nM | Kd [2, 9]: 11300 nM | Kd [3, 9]: ≥ 48000 nM

Sequence: AARLKRSAT
Kd [1, 9]: 12500 nM | Kd [2, 9]: 10500 nM | Kd [3, 9]: ≥ 63400 nM

Sequence: RNHLRDLMGV
Kd [1, 14]: 428 nM | Kd [2, 14]: 733 nM | Kd [3, 14]: 107 nM

Sequence: VLSIPPTAGI
Kd [2, 11]: 226 nM

Sequence: ALKNSQAELT
Kd [1, 9]: 2120 nM | Kd [2, 9]: 980 nM | Kd [3, 9]: ≥ 27200 nM

Sequence: IMKDGREIV
Kd ([2]; source organism: Dengue virus 1 Brazil/97-11/1997): 110 nM

Sequence: RISSSLDQT
Kd [1, 9]: 6790 nM | Kd [2, 9]: 12800 nM | Kd [3, 9]: ≥ 27800 nM

Sequence: FLARKGIDT
Kd [1, 9]: 1020 nM | Kd [2, 9]: 318 nM | Kd [3, 9]: 3040 nM

Sequence: RTNDLTALL
Kd [1, 9]: 3.66 nM | Kd [2, 9]: 7.23 nM | Kd [3, 9]: 119 nM

Sequence: VLIFILLTA
Kd ([2]; source organism: Dengue virus 2 Peru/IQT2913/1996): 140 nM

Sequence: SADNHPKMI
Kd [1, 9]: 8180 nM | Kd [2, 9]: ≥ 43500 nM | Kd [3, 9]: ≥ 77100 nM

Sequence: DIRDKYMEL
Kd [1, 9]: ≥ 24300 nM | Kd [2, 9]: 3860 nM | Kd [3, 9]: 14500 nM

Sequence: EVIGLTTHCT
Kd [1, 9]: 10500 nM | Kd [2, 9]: 14900 nM | Kd [3, 9]: 12200 nM

Sequence: CTEETKRNI
Kd [1, 9]: ≥ 77800 nM | Kd [2, 9]: ≥ 78100 nM | Kd [3, 9]: ≥ 77100 nM

Sequence: RVSENTGMGM
Kd [1, 9]: 839 nM | Kd [2, 9]: 88.9 nM | Kd [3, 9]: 146 nM

Kd ([3]; source organism: Homo sapiens): ≥ 26400 nM
Sequence: TLKYPIEHGI

Sequence: ILKDPRIASI
Kd [1, 9]: 3160 nM | Kd [2, 9]: 1030 nM | Kd [3, 9]: 4000 nM

Sequence: RLFTRCAVI
Kd [1, 9]: 93.8 nM | Kd [2, 9]: 249 nM | Kd [3, 9]: 2820 nM

Sequence: TVKNVDIIDL
Kd [1, 9]: ≥ 31300 nM | Kd [2, 9]: 8310 nM | Kd [3, 9]: 12400 nM

Sequence: LATLNTLITL
Kd [1, 9]: 139 nM | Kd [2, 9]: 338 nM | Kd [3, 9]: 323 nM

Sequence: SLTTIGTIA
Kd [1, 9]: 1.04 nM | Kd [2, 9]: 3.69 nM | Kd [3, 9]: 489 nM

Kd ([3]; source organism: Homo sapiens): ≥ 71200 nM
Sequence: GLKALYETEL

Sequence: IIYSKAGNIL
Kd [1, 9]: 8.48 nM | Kd [2, 9]: 110 nM | Kd [3, 9]: 342 nM

Sequence: NVIEDITFL
Kd [1, 9]: 146 nM | Kd [2, 9]: 300 nM | Kd [3, 9]: 25.8 nM

Sequence: DMDFDLNIFM
Kd [1, 9]: 1150 nM | Kd [2, 9]: ≥ 5000 nM | Kd [3, 9]: 5310 nM

Sequence: ITRLEVIGL
Kd [1, 9]: 5510 nM | Kd [2, 9]: 213 nM | Kd [3, 9]: 776 nM

Sequence: LAFVVFLLV
Kd [1, 12]: 458 nM | Kd [2, 12]: 1270 nM | Kd [3, 12]: 253 nM

Sequence: MMILPAALA
Kd ([2]; source organism: Dengue virus 3 Sri Lanka/1266/2000): 46.4 nM

Sequence: YAAEMVEYL
Kd [1, 9]: 0.524 nM | Kd [2, 9]: 2.07 nM | Kd [3, 9]: 11.8 nM

Sequence: NQAVVLMGL
Kd [3, 13]: 88.4 nM

Sequence: VQSKMSDVK
Kd [4, 12]: 4160 nM | Kd [5, 12]: 198 nM | Kd [6, 12]: 7070 nM | Kd [7, 12]: ≥ 25000 nM | Kd [8, 12]: ≥ 53500 nM

Sequence: YSISNDLLY
Kd [4, 9]: 1190 nM | Kd [5, 9]: 337 nM | Kd [6, 9]: 249 nM | Kd [7, 9]: ≥ 65500 nM | Kd [8, 9]: 2310 nM

Sequence: VTYTEIEPK
Kd [4, 12]: 31.2 nM | Kd [5, 12]: 7.49 nM | Kd [6, 12]: 1360 nM | Kd [7, 12]: ≥ 25700 nM | Kd [8, 12]: 147 nM

Sequence: AFDAPTLYVK
Kd [4, 9]: 2280 nM | Kd [5, 9]: 271 nM | Kd [6, 9]: 3840 nM | Kd [7, 9]: ≥ 56000 nM | Kd [8, 9]: 134 nM

Sequence: HQNSKKTTK
Kd [4, 12]: 1100 nM | Kd [5, 12]: 2080 nM | Kd [6, 12]: 1980 nM | Kd [7, 12]: ≥ 77700 nM | Kd [8, 12]: ≥ 77700 nM
